In PMC5052520, “The Important Role of Halogen Bond in Substrate Selectivity of Enzymatic Catalysis” (Scientific Reports, 2016):

Experiments:
Assay in all cases: hydrolysis kinetics, product by liquid chromatography
Type in all cases: biochemical, Synechocystis sp. PCC 6803
N#CCc1cccc(Cl)c1 = test system: N#CCc1cccc(Cl)c1
Text: (§1) hydrolysis kinetics, product by liquid chromatography on nitrilase (WT)

N#CCc1ccccc1Cl = test system: N#CCc1ccccc1Cl
Text: as §1

N#CCc1ccc(Cl)cc1 = test system: N#CCc1ccc(Cl)cc1
Text: as §1

Substance | Km (N#CCc1cccc(Cl)c1) [µM] | kcat (N#CCc1cccc(Cl)c1) [s⁻¹] | kcat/Km (N#CCc1cccc(Cl)c1) [M⁻¹ s⁻¹] | Km (N#CCc1ccccc1Cl) [µM] | kcat (N#CCc1ccccc1Cl) [s⁻¹] | kcat/Km (N#CCc1ccccc1Cl) [M⁻¹ s⁻¹] | Km (N#CCc1ccc(Cl)cc1) [µM] | kcat (N#CCc1ccc(Cl)cc1) [s⁻¹] | kcat/Km (N#CCc1ccc(Cl)cc1) [M⁻¹ s⁻¹]
nitrilase (WT) (Synechocystis sp. PCC 6803 substr. Kazusa) | 460 ± 40 | 0.27 ± 0.02 | 590 |  |  |  |  |  | 
nitrilase (WT) (Synechocystis sp. PCC 6803 substr. Kazusa; H141W) |  |  |  | 650 ± 180 | 0.21 ± 0.05 | 330 |  |  | 
nitrilase (WT) (Synechocystis sp. PCC 6803 substr. Kazusa; T54Y) | 9600 ± 270 | 0.08 ± 0.13 | 10 |  |  |  | 710 ± 30 | 0.56 ± 0.07 | 560
